Laboratory results as given in IntAct's records for PubMed 31435016.

B1: Isoform 2 of ATP-binding cassette sub-family B member 8, mitochondrial (Homo sapiens), Q9NUT2-2 (parent)
chain: MLVHLFRVGIRGGPFPGRLLPPLRFQTFSAVRYSDGYRSSSLLRAVAHLRSQLWAHLPRAPLAPRWSPSAWCWVGGALLGPMVLSKHPHLCLVALCEAEEAPPASSTPHVVGSRFNWKLFWQFLHPHLLVLGVAVVLALGAALVNVQIPLLLGQLVEVVAKYTRDHVGSFMTESQNLSTHLLILYGVQGLLTFGYLVLLSHVGERMAVDMRRALFSSLLRQDITFFDANKTGQLVSRLTTDVQEFKSSFKLVISQGLRSCTQVAGCLVSLSMLSTRLTLLLMVATPALMGVGTLMGSGLRKLSRQCQEQIARAMGVADEALGNVRTVRAFAMEQREEERYGAELEACRCRAEELGRGIALFQGLSNIAFNCMVLGTLFIGGSLVAGQQLTGGDLMSFLVASQTVQRSMANLSVLFGQVVRGLSAGARVFEYMALNPCIPLSGGCCVPKEQLRGSVTFQNVCFSYPCRPGFEVLKDFTLTLPPGKIVALVGQSGGGKTTVASLLERFYDPTAGVVMLDGRDLRTLDPSWLRGQVVGFISQEPVLFGTTIMENIRFGKLEASDEEVYTAAREANAHEFITSFPEGYNTVVGERGTTLSGGQKQRLAIARALIKQPTVLILDEATSALDAESERVVQEALDRASAGRTVLVIAHRLSTVRGAHCIVVMADGRVWEAGTHEELLKKGGLYAELIRRQALDAPRTAAPPPKKPEGPRSHQHKS
partner: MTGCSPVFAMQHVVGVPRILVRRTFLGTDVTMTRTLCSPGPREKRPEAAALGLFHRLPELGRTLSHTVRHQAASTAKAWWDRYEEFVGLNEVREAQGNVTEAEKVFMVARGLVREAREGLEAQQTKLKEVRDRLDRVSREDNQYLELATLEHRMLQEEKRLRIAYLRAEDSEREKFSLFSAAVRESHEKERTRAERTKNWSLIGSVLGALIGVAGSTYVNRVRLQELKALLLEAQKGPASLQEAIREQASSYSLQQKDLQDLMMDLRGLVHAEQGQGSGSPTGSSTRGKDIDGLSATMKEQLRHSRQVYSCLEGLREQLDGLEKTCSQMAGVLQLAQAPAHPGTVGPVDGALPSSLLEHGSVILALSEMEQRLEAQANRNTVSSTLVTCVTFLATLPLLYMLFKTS

Variants of: B1
Settings: with Ccdc51, Q3URS9-1

effect of a mutation on the interaction | Variant
with no effect | K496A
